Assay results taken from the RNAGym collection of RNA variant scans (doi:10.1021/acssynbio.7b00057).

B1: Pistol ribozyme (parent)
chain: GGGUCGUUGUUCCAUAAUCGCGUGGAUAUGGCACGCAAGUUUCUACCGGGCACCGUAAAUGUCCGACUGGAGCCGUUCGGGCGGCUAUAAACAGACCUCAGGCCCGAAGCGUGGCGGCACCUGCCGCCGGUGGUAAAAAAGAUCGGAAGAGCACACGUCU

Variants of: B1
Assay: aptazyme ON/OFF ratio, guanine; higher = stronger switching; co-transcriptional cleavage with and without guanine

Variant	aptazyme ON/OFF ratio
U7C G9A U10A C12A C13U	1.05
U7C	1.31
U7C G9A U10A U11A C12A	1.24
U7C G9A U10A U11A C12U	1.27
U7C G9A U10A U11A C12G	1.2
U7C G9A U10G U11A C12A C13A	1.17
U7C G9A U10G U11A C12A C13U	1.16
U7C G9A U10G U11A C12A C13G	1.09
U7C G9A U10C U11G C12U	1.45
U7C G9A U10C U11G C12A	1.28
U7C G9A U10C U11G C12G	1.28
U7C G9A U10C U11A C12G C13A	1.11
U7C G9A U10C U11A C12G C13U	1.18
U7C G9A U10C U11A C12G C13G	1.39
U7C G9A U10C U11C C12A C13A	1.07
U7C G9A U10C U11C C12A C13U	1.16
U7C G9A U10C U11C C12A C13G	1.15
U7C G9C U10A U11A	1.05
U7C G9C U10A U11C	1.04
U7C G9A U10C C12U	1.2
U7C G9A U10C C12A	1.27
U7C G9A U10C C12G	1.2
U7C C12U C13G	1.28
U7C C12U C13A	1.55

Variant	aptazyme ON/OFF ratio
U7C C12U C13U	1.05
U7C G9A U11A C12U C13G	1.09
U7C G9A U11A C12U C13U	1.3
U7C G9A U11A C12U C13A	1.07
U7C G9A U10A U11C C12A C13G	1.1
U7C G9A U10A U11C C12A C13U	1.24
U7C G9A U10A U11C C12A C13A	1.1
U7C G9A U11G	1.37
U7C G9A U11C	1.05
U7C G9A U11A	1.33
U7C G9A U10A U11C	1.09
U7C G9A U10A U11G	1.27
U7C G9A U10A U11A	1.19
U7C G9A U11A C12G C13G	1.19
U7C G9A U11A C12G C13A	1.15
U7C G9A U11A C12G C13U	1.27
U7C G9A U10A U11C C12G C13G	1.46
U7C G9A U10A U11C C12G C13U	1.12
U7C G9A U10A U11C C12G C13A	1.27
U7C C13G	1.05
U7C C13U	1.18
U7C C13A	1.14
U7C G9A U10C C12G C13A	1.26
U7C G9A U10C C12G C13G	1.26

Variant	aptazyme ON/OFF ratio
U7C G9A U10C C12G C13U	1.15
U7C G9A U10A U11G C12A C13G	1.11
U7C G9A U10A U11G C12A C13A	1.08
U7C G9A U10A U11G C12A C13U	1.15
U7C G9A C12A C13G	1.11
U7C G9A C12A C13U	1.25
U7C G9A C12A C13A	1.24
U7C G9A U10C U11A C12A	1.27
U7C G9A U10C U11A C12U	1.34
U7C G9A U10C U11A C12G	1.14
U7C G9C U10A U11C C13A	1.02
U7C G9C U10A C12G C13U	1.12
U7C G9C U10A C12G C13A	1.07
U7C G9C U10A C12G C13G	1.11
U7C G9A U10C U11G C12U C13U	1.32
U7C G9A U10C U11G C12U C13G	1.34
U7C G9A U10C U11G C12U C13A	1.31
U7C G9C U10A U11A C12G C13A	1.08
U7C G9C U10A U11A C12G C13G	1.12
U7C G9C U10A U11A C12G C13U	1.07
U7C G9A U10G U11A C12U	1.05
U7C G9A U10G U11A C12A	1.32
U7C G9A U10G U11A C12G	1.21
U7C G9A U10A U11G C13U	1.25

Variant	aptazyme ON/OFF ratio
U7C G9A U10A U11G C13G	1.02
U7C G9A U10A U11G C13A	1.07
U7C G9A U10C U11A C12A C13G	1.22
U7C G9A U10C U11A C12A C13A	1.12
U7C G9A U10C U11A C12A C13U	1.16
U7C G9A U10G U11C C12A C13U	1.15
U7C G9A U10G U11C C12A C13A	1.2
U7C G9A U10G U11C C12A C13G	1.11
U7C G9A U10A U11G C12U C13A	1.16
U7C G9A U10A U11G C12U C13U	1.27
U7C G9A U10A U11G C12U C13G	1.13
U7C G9C U10A U11C C12U C13G	1.03
U7C G9C U10A U11C C12U C13A	1.04
U7C G9C U10A U11C C12U C13U	1.03
U7C G9A U10G U11A C12U C13A	1.05
U7C G9A U10G U11A C12U C13U	1.18
U7C G9A U10G U11A C12U C13G	1.14
U7C G9C U10A C12A C13A	1.09
U7C G9C U10A C12A C13G	1.09
U7C G9C U10A C12A C13U	1.09
U7C G9A U10C U11A C12U C13G	1.22
U7C G9A U10C U11A C12U C13A	1.21
U7C G9A U10C U11A C12U C13U	1.39
U7C G9C U10A C13A	1.04

Variant	aptazyme ON/OFF ratio
U7C G9C U10A C13U	1.05
U7C G9C U10A C13G	1.05
U7C G9A U11G C12A	1.08
U7C G9A U11G C12U	1.27
U7C G9A U11G C12G	1.37
U7C G9A U10G C12U	1.33
U7C G9A U10G C12G	1.28
U7C G9A U10G C12A	1.15
U7C G9A C12U	1.16
U7C G9A C12G	1.14
U7C G9A C12A	1.33
U7C G9A U10A U11A C13U	1.16
U7C G9A U10A U11A C13G	1.04
U7C G9A U10A U11A C13A	1.08
U7C C12A C13U	1.19
U7C C12A C13A	1.16
U7C C12A C13G	1.1
U7C G9A U10A C12U C13U	1.25
U7C G9A U10A C12U C13G	1.2
U7C G9A U10A C12U C13A	1.16
U7C G9A U10G U11A	1.06
U7C G9A U10G U11C	1.08
U7C G9A U10G U11G	1.09
U7C G9A U10C C12A C13A	1.38

Variant	aptazyme ON/OFF ratio
U7C G9A U10C C12A C13G	1.17
U7C G9A U10C C12A C13U	1.31
U7C G9A U11A C13G	1.09
U7C G9A U11A C13A	1.21
U7C G9A U11A C13U	1.13
U7C G9A U10A U11C C12U	1.07
U7C G9A U10A U11C C12G	1.35
U7C G9A U10A U11C C12A	1.13
U7C G9A U10G U11G C12A C13A	1.17
U7C G9A U10G U11G C12A C13U	1.13
U7C G9A U10G U11G C12A C13G	1.09
U7C G9A U11G C12U C13U	1.45
U7C G9A U11G C12U C13G	1.23
U7C G9A U11G C12U C13A	1.35
U7C G9A U10G U11C C12U C13U	1.21
U7C G9A U10G U11C C12U C13A	1.2
U7C G9A U10G U11C C12U C13G	1.09
U7C G9A U10C U11G C12A C13U	1.08
U7C G9A U10C U11G C12A C13G	1.15
U7C G9A U10C U11G C12A C13A	1.21
U7C G9A U10G U11A C13G	1.04
U7C G9A U10G U11A C13U	1.03
U7C G9A U10G U11A C13A	1.06
U7C G9A U10C U11G C12G C13G	1.11

Variant	aptazyme ON/OFF ratio
U7C G9A U10C U11G C12G C13U	1.09
U7C G9A U10C U11G C12G C13A	1.14
U7C G9A U10G U11C C12G C13A	1.19
U7C G9A U10G U11C C12G C13U	1.11
U7C G9A U10G U11C C12G C13G	1.34
U7C G9A U10G U11C C13A	1.24
U7C G9A U10G U11C C13U	1.06
U7C G9A U10G U11C C13G	1.03
U7C G9A U10G U11G C13A	1.24
U7C G9A U10G U11G C13U	1.17
U7C G9A U10G U11G C13G	1.05
U7C G9A U10G C12G C13A	1.14
U7C G9A U10G C12G C13G	1.1
U7C G9A U10G C12G C13U	1.15
U7C G9C U10A U11A C12U C13A	1.04
U7C G9C U10A U11A C12U C13U	1.09
U7C G9C U10A U11A C12U C13G	1.06
U7C G9A U10C U11C C13U	1.03
U7C G9A U10C U11C C13G	1.02
U7C G9A U10C U11C C13A	1.01
U7C G9A U11C C13U	1.06
U7C G9A U11C C13A	1.07
U7C G9A U11C C13G	1.04
